{"source": "patent EP0799050B1", "about": "“RADIOLABELED ANNEXIN-GALACTOSE CLUSTER CONJUGATES” (NEORX CORPORATION, priority 1994, dated 1996)", "assay": "blood clearance in the swine model", "conditions": "in vivo", "experimental": "Annexin V-galactose was radiolabeled with technetium-99m using a diamide dimercaptide (N2S2) chelate as described by Kasina et. al., J. Nucl. Med. 32: 1445-51, 1991. The preformed active ester chelate was diluted with 2.0 ml water and purified before conjugation to annexin V-galactose using a modified conditioned C-18 column (commercially available from J.T. Baker), as described by Fritzberg et. al., Proc. Natl. Acad. Sci. USA 85: 4025-29, 1988, washing with 2.0 ml water eight times followed by drying the column for 5 min and eluting with 100% acetonitrile. The solvent was removed under a steady stream of N2. Then 0.15 ml of PBS, 0.35 ml of annexin V-galactose (4.7:1 galactose:annexin V) at 1.0 mg/ml, and 0.2 ml of 0.2M bicarbonate buffer (pH 10.0) were added for conjugation to Tc-99m-N2S2-TFP ester. […] Fractions of 1.0 ml were collected, and fractions containing annexin V were pooled. Protein concentration was determined by UV absorption at 280 nm. […] The ITLC sheets were cut into two halves, and each half was counted in a gamma counter or a dose calibrator. […] An animal model, as previously described in Example III, was employed to evaluate blood clearance of the molecules."}
{"substance": "Tc-99m-annexin V: annexin V radiolabeled with Tc-99m by a diamide dimercaptide N2S2 chelate (Example I)", "values": [{"measurement": "%ID/g a", "value": "a = 0.0389 %ID/g"}, {"measurement": "%ID/g b", "value": "b = 0.0300 %ID/g"}, {"measurement": "t1/2 a", "value": "a = 9.6 min"}, {"measurement": "t1/2 b", "value": "b = 46 min"}]}
